Test results: publication PMC7666158 (2020)
Numbering of substitutions follows the chain as printed. Numbers in names are those of the source.

Assays:
[1] = molecular target: T1, JNK1-dc20 (JNK1 with the C-terminal 20 residues truncated) (human, UniProt P45983 1-427); experiment: FP; EDTA
[2] = molecular target: T1, JNK1-dc20 (JNK1 with the C-terminal 20 …); experiment: FP
[3] = molecular target: T1, JNK1-dc20 (JNK1 with the C-terminal 20 …); experiment: ITC
[4] = molecular target: T1, JNK1-dc20 (JNK1 with the C-terminal 20 …); experiment: ITC; 2 mM EDTA

T1 sequence (P45983 other isoform, or with tags, fused parts or gaps): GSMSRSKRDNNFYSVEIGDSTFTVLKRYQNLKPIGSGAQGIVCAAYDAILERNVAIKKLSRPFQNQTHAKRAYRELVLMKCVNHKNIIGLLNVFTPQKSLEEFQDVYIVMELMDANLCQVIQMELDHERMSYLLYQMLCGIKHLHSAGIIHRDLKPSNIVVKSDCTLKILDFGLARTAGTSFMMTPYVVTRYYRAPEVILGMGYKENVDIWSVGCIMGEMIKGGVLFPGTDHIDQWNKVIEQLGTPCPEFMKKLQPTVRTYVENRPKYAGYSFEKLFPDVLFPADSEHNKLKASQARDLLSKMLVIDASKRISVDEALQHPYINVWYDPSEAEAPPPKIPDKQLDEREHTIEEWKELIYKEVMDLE

B1: MBP-ATF2(19–100) (domain or fragment)
chain: MSDDKPFLCTAPGCGQRFTNEDHLAVHKHKHEMTLKFGPARNDSVIVADQTPTPTRFLKNCEEVGLFNELASPFENEFKKAS
With B1 the Kd [1] was 53 µM and the Kd [2] was 3.5 µM.

Binder MSDDKPFLCTAPGCGQRFTNEDHLAVHKHKHEMTLKFGPA (domain or fragment) [ATF2(19–58)-His6 (MBP removed, for ITC)] has a Kd [3] of 5.1 µM and a Kd [4] of 48 µM.

B2: MBP-c-Jun(1–78) (domain or fragment)
chain: MTAKMETTFYDDALNASFLPSESGPYGYSNPKILKQSMTLNLADPVGSLKPHLRAKNSDLLTSPDVGLLKLASPELER
For B2, the Kd [1] was 4.9 µM and the Kd [2] was 3.8 µM.

Binder MSDDKPFLCTAPGCGQRFTNEDHLAVHKHKHEMTLKFGPA (domain or fragment) [ATF2(19–58) as used in the competitive fluorescence polarisation assay] has a Kd [2] of 4.5 µM.

B3: MBP-c-Jun(1–78) K35E (domain or fragment)
chain: B2 chain with K35E
For B3, the Kd [2] was 55 µM.
